Reference: the nanobody polyreactivity screen of Harvey et al. (2022)

Assay: yeast display, Sf9 membrane polyspecificity reagent, FACS + sequencing; frameworks hold sequencing errors
Method in brief: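 Synthetic nanobody libraries on Saccharomyces cerevisiae BJ5465 were galactose-induced for 36–48 hours, stained 1 hour at 4 °C with 10% biotinylated, detergent-solubilized Sf9 membrane reagent and enriched on streptavidin microbeads. FACS then separated cells into low and high (top ~1%) gates by anti-HA (expression) and streptavidin (reagent binding) fluorescence. Genes were colony-PCR amplified, MiSeq 2 × 250 sequenced and CDR-length filtered. A clone's polyreactivity label is that of its gate of origin.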

Row | Sequence | polyreactivity (PSR sort gate)
1 | QVQLVESGVGLDQAGGSLRLSCAASGSIFIINAMGLYRQAPGKERELVARISNGGNTYADSVKGRFTISRDNAKNTVYLQMKSLKPEDTAVYYCAARAYARRPKYVPKFDYWGQGTQVTVSS | high polyreactivity
2 | QVQLVESGVGLFQAGGSLRLTCAASGSTFYLNDMGWYRQAPAKERELVAAIDWSGGSTYYADSVKGRFTNSRDNAKYYGYLQMNSLTPEDTAVYYCAARLFYEWRRLDYFIAWDYWGHGTQVTVSS | low polyreactivity
3 | QVQLVESGVGLVKAGVSLRLSSDASARIFPHYAMGWYRQAPGKERELFAPINVDGGRTYYPDSVKGRFTISRDNAKNTVYLQLNILKPEDTAVYYCAAKPFLYHDQDYGYAVEFNYWGQGTQVTVSS | low polyreactivity
4 | QVQLVESGVGLVQAAGSLRLSCASSGIICGEYAMGWYRQAPGNERELVAAISGSGSRTYYADSVKVRFTISRDIAKNTVFLQMNRLKPEDTAVYYCNSRRYIYNYDYWGQGTQVTVSS | high polyreactivity
5 | QVQLVESGVGLVQAGGILRLSCAASGRIFNGYALGWYRQAPGKERELVAVITWNGGSTYYADSVKGRFTISRDNAKNTVYLQMNSLKPEETAVYYCADRRTGYYGTRDYWGQVTQVTVSS | high polyreactivity
6 | QVQLVESGVGLVQAGGILRLSCAASGRIFYKNAMVWYRQAPGKERELVATITYSDGTTYYADSLKGRFTISRDNAKNTVYLQMNSLKPEDTAVYYCAAQTDSVESDYWGQGTQVTVSS | low polyreactivity
7 | QVQLVESGVGLVQAGGILRLSCAASGSSFRGYAMGWYRQAPGKERELVAAISSRGARTHYADSVKGRFTISRDNAKNTVYLQMNRLKPEDTAVYYCNKRQVFVSTGEYEFDYWGQGTQVTVSS | low polyreactivity
8 | QVQLVESGVGLVQAGGRLRLICAASGSTYDSAMGWYIQAPGKERELVASISWSDSSTYYADSVKGRFTISPDNAKNTVYLQMTSLKPEDSAVYYCNAEQGTRDSDYWGQGTQVTVSS | low polyreactivity
9 | QVQLVESGVGLVQAGGRLRLSCAASGLTLHRYTMGWYRQAPGKERELVAVITYGGGNTYYADSVKGRFTISRDNAKNTVYLQLNCLKPEDTAVYYCAARDPPFYWYDYWGQGTQVTVSS | low polyreactivity
10 | QVQLVESGVGLVQAGGRLRLSCAASGRIFGSNAMGWYRQAPGKERELVAAITRSGGSTYYADSVKGRFTISRDNAKNTVYLQMNSLKPEDTAVYYCAAVRTQPKYDYCGQGTQVTVSS | high polyreactivity
11 | QVQLVESGVGLVQAGGRLRLSCAASGSIFYYYAMGWYRQAPGKERELVAAISGTGGSTYYADSVKGRFTISRDNAKITFYLQMNSLKPEDTAVYYCAASFYIERHRYIYWGQGTQVTVSS | high polyreactivity
12 | QVQLVESGVGLVQAGGSLRLICADSGSIFSQYAMGGYRPAPGKERELVAAISKNGGSTYYADSVKGRFTISRDNAKNTVYSQMNSLKPEDTAVYYCAARVLKGYYWGQGTQVTVSS | high polyreactivity
13 | QVQLVESGVGLVQAGGSLRLSCAASGFIFGVTTMGWYRLAPGKERELVAAISTLASSTFDADSVKGRFTISRDNAKNTVYLQMNSLKPEDTAVYYCAVDLNWFFSFGLDYWGQGTQLTVSS | low polyreactivity
14 | QVQLVESGVGLVQAGGSLRLSCAASGFIFRFYTMGWYRQAPGKERELVAAISGSGGRTYYADSVKGRFTISRDYANNTVYVQMNRLKPEDTEVYYCNKQFLYPSYDYWGQGTQVTVSS | high polyreactivity
15 | QVQLVESGVGLVQAGGSLRLSCAASGFTFAFYAMGWYRQAPGKERELVAAISRRGGSTTYADSVKGRFTISRDNAKYTVYLQMNSLKPEDTAVYYCNAVSTRNPGPDYYYWGQGTQVTVSS | high polyreactivity
16 | QVQLVESGVGLVQAGGSLRLSCAASGFTFKSYTMGWYRQAPGKERELVANISRRGGSTYYADSVKGRFTISRDTAKNTVYLQMNRLKPEDTAVYYCAADAYGFLYTTYRYFYWGQGTQVTVST | high polyreactivity
17 | QVQLVESGVGLVQAGGSLRLSCAASGGIFAVYAMGWYIQAPGKERELVAAITWRGGSTRYADSVKGRFTISRDNAKNTVYLQMNSLKPEDTAVYYCAVRSTGYPSRYYYWGQGTQVTVSS | high polyreactivity
